We go through 3 molecules from US20180369403A1 (University of Texas, published 2018).

Assay [1] deals with T1, human LGR4 (leucine-rich repeat-containing G-protein coupled receptor 4) (human, UniProt Q9BXB1 25-951).
T1 construct: whole, on cells; also called GPR48; HEK293-LGR4-human
Briefly: fluorescence cell binding, HEK293 cells overexpressing LGR4, Alexa-488 anti-rat IgG.

Assay [2] has as its target T1, human LGR4 (leucine-rich …). Briefly: cell-based or functional assay.
Another assay deals with T2, mouse LGR4 (mouse, UniProt A2ARI4 25-951).
T2 construct: whole, on cells; also called native mouse receptor; HEK293-LGR4-mouse
Briefly: Western blot, lane HEK293-LGR4-mouse. (Immunoblotting shows a protein as a band on a membrane.)

For assay [3], the target named is T1, human LGR4 (leucine-rich …). Briefly: binding to live HEK293 cells stably expressing human LGR4.
A further assay deals with T3, LGR5 (UniProt O75473 22-561, limits assumed).
T3 sequence (looked up): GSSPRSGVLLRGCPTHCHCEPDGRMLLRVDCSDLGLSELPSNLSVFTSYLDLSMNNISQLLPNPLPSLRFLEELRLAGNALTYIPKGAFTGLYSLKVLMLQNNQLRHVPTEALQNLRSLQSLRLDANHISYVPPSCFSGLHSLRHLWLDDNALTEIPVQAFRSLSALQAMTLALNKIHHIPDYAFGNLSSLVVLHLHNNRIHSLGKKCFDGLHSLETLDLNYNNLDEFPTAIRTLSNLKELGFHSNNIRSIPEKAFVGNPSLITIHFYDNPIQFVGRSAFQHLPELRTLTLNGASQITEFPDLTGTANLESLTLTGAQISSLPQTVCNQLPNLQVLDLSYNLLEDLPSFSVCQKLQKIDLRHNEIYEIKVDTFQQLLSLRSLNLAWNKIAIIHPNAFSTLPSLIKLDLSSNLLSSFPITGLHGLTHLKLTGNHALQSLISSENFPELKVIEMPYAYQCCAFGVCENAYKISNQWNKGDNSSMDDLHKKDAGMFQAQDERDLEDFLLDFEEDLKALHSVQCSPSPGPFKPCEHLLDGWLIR
Briefly: specificity cross check analysis.

A further assay deals with T4, LGR6 (UniProt Q9HBX8 25-567, limits assumed).
T4 sequence (looked up): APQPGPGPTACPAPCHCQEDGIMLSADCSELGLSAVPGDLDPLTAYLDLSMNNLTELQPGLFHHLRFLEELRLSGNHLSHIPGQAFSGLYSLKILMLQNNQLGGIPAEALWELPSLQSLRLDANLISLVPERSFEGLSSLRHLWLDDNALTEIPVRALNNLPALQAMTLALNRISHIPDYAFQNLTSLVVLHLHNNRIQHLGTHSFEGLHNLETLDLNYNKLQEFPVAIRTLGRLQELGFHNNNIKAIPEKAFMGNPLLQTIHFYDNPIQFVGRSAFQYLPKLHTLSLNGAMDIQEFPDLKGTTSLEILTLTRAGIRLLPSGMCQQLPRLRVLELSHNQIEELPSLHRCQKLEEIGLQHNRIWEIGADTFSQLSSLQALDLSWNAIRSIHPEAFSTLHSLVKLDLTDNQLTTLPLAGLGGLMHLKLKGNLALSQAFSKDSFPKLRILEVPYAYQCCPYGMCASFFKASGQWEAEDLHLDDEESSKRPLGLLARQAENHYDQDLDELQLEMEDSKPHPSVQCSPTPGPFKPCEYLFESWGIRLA
Briefly: specificity cross check analysis.

Values joined by “and” are separate entries in the source; they are usually repeats but may differ in a detail not shown here. Identical values can stand only once.

B1: anti-LGR4 monoclonal antibody 3G6 (antibody, V domains shown)
VH: QVQLQQSGAELVKPGSSVKISCKASGYTFTSNFMHWIKQQPGNGLEWIGWIYPGDGDTDYNQKFIGKATLTADKSSSTAYMQLSSLTSEDSAVYFCSRSNSGYNWFAYWGQGTLVTVSS
VL: DIVLTQSPPVLSASVGDRVTLSCKASQNINKNLDWYQQKHGEAPKLLIYYTNNLQTGIPSRFSGSGSGTDYTLTIRSLQPEDVATYYCYQYRTGWTFGGGTKLELKR
notes: Rat monoclonal antibody; also called clone 3G6
Regarding B1, the dissociation constant Kd in assay [1] turned out to be 0.1 µg/mL.

B2: 8D2-MC-VC-PAB-MMAE (antibody, V domains shown)
VH: QVQLQQSGAELVKPGASVNLSCKTSGYTFSTSYMSWFKQIPGQTIEWVGLIYVGAGGPTYNQKFKGKASLTVDTSSSTAYMDLSSLTAEDSAVYFCARVRGYAMDAWGQGTSVTVSS
VL: DIVLTQSPATLSVTPGESVSLSCRASQDISTSIHWYQQKSNESPRLLIKYASQSISGIPSRFSGGGSGTDFTLTINRVESEDFSVYYCQQSYSLPVTFGSGTKLELKR
modifications: MMAE (auristatin) attached through an MC-VC-PAB (maleimidocaproyl-valine-citrulline-p-aminobenzyloxycarbonyl) linker; sites and chain of attachment not stated
B2: in assay [2], the “IC50, cell viability of IGROV1 cells (CelltiterGlo, 4 days)” value was around 0.3 µg/mL; the “IC50, cell viability of OVCAR3 cells (CelltiterGlo, 4 days)” value was around 0.03 µg/mL; the “IC50, cell viability of SKOV3 cells (CelltiterGlo, 4 days)” value is 2.4 µg/mL.

B3: anti-LGR4 monoclonal antibody 8D2 (antibody, V domains shown)
VH: QVQLQQSGAELVKPGASVNLSCKTSGYTFSTSYMSWFKQIPGQTIEWVGLIYVGAGGPTYNQKFKGKASLTVDTSSSTAYMDLSSLTAEDSAVYFCARVRGYAMDAWGQGTSVTVSS
VL: DIVLTQSPATLSVTPGESVSLSCRASQDISTSIHWYQQKSNESPRLLIKYASQSISGIPSRFSGGGSGTDFTLTINRVESEDFSVYYCQQSYSLPVTFGSGTKLELKR
notes: also called mAb 8D2; LGR4-mAb-8D2
As for B3, the binding result with mouse LGR4 is given as “binds”; with LGR5, “no binding”; in the assay with LGR6 it was “no binding”. In addition, the Kd in assay [3] is ~0.1 µg/mL and ~0.7 nM; in assay [1] it was 0.5 µg/mL.

The Kd is the free concentration of one partner at which half of the binding sites on the other are occupied at equilibrium, for simple one-to-one binding. A low value points to a tighter complex.
